In patent US20210122785A1 (Bicycle, published 2021):
Starred links: 1 amine or outer side, 2 acyl side, 3 side chain; linkers in the order of their positions; H or OH if unused. Positions of bridges follow the written chain, without caps; N, C: chain ends. Non-standard residues stand in square brackets, D forms with d. No end group written: not given here. TBMB = c1c(C[*:1])cc(C[*:3])cc1C[*:2]; Dap(Me) = CNC[C@H](N)C(=O)O

T1: IL-17A (UniProt Q16552 24-155)
T1 construct: also called Interleukin-17
T1 sequence (looked up): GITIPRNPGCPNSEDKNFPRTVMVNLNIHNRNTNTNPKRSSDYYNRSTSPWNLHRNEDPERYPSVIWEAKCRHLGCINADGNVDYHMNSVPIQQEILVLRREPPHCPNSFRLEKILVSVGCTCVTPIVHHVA

T2: hIL17-F (human, UniProt Q96PD4 31-163)
T2 construct: also called human IL-17F
T2 sequence (looked up): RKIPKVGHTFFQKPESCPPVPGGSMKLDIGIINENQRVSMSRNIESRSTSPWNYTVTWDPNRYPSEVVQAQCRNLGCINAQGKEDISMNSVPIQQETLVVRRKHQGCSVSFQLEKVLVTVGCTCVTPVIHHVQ

T3: hIL17-A (human, UniProt Q16552 24-155)
T3 construct: also called human IL-17A
T3 sequence (looked up): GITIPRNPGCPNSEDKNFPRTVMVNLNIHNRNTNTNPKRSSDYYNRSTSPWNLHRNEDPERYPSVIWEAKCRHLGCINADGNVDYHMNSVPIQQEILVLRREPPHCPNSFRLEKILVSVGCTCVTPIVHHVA


Tests used:
IL-17A [1] = target: T1, IL-17A; assay: IL-17A binding assay, method analogous to WO 2011/141823; replicate n2
IL-17A [2] = target: T1, IL-17A; assay: IL-17A binding assay, method analogous to WO 2011/141823; mean of n1 and n2
IL-17A [3] = target: T1, IL-17A; assay: IL-17A binding assay, method analogous to WO 2011/141823; replicate n1
hIL17-F = target: T2, hIL17-F; assay: IL-17 binding assay (Kd), as described in GB1720932.1
hIL17-A = target: T3, hIL17-A; assay: as above

Binder	Ki (IL-17A [1])	Ki (IL-17A [2])	Ki (IL-17A [3])	Kd (hIL17-F)	Kd (hIL17-A)
Ac-A[Dap(Me)]PQDLELCTFLFGD[Dap(Me)]A (linker 2-9-16 via TBMB, Bicyclic peptide on a TBMB scaffold; first and third cysteines of BCY00008655 replaced by Dap(Me); also called Ac-(28-06)(TBMB) Cys13Dap(Me)) [BCY00008653]	85.9 nM	129 nM	173 nM	–	–
ACLWKDNCTHWSLCA (linker 2-8-14 via TBMB) [Reference Example A6, A-CLWKDNCTHWSLC-A]	–	–	–	392 nM	–
CPENELYCFLSSQQC (linker 1-8-15 via TBMB) [Reference Example A2, CPENELYCFLSSQQC]	–	–	–	–	398 nM
Ac-A[Dap(Me)]PQDLEL[Dap(Me)]TFLFGDCA (linker 2-9-16 via TBMB, Bicyclic peptide on a TBMB scaffold; first and second cysteines of BCY00008655 replaced by Dap(Me); also called Ac-(28-06)(TBMB) Cys12Dap(Me)) [BCY00008651]	231 nM	264 nM	298 nM	–	–
ACGYDYYCALYDICA (linker 2-8-14 via TBMB) [Reference Example A5, A-…-A]	–	–	–	198 nM	–
Ac-ACPQDLEL[Dap(Me)]TFLFGDCA (linker 2-9-16 via TBMB, Bicyclic peptide on a TBMB scaffold; second cysteine of BCY00008655 replaced by Dap(Me); also called Ac-(28-06)(TBMB) Cys2Dap(Me)) [BCY00008649]	59.6 nM	60.2 nM	60.8 nM	–	–

Other lines, results leading:

Ki (IL-17A [1])	Ki (IL-17A [2])	Ki (IL-17A [3])	Kd (hIL17-F)	Kd (hIL17-A)	Binder
107 nM	93 nM	78.8 nM	–	–	Ac-ACPQDLELCTFLFGDCA (linker 2-9-16 via TBMB, Bicyclic peptide on a TBMB scaffold; also called Ac-(28-06)(TBMB)) [BCY00008655]
105 nM	116 nM	127 nM	–	–	Ac-A[Dap(Me)]PQDLELCTFLFGDCA (linker 2-9-16 via TBMB, Bicyclic peptide on a TBMB scaffold; first cysteine of BCY00008655 replaced by Dap(Me); also called Ac-(28-06)(TBMB) Cys1Dap(Me)) [BCY00008648]
89.3 nM	94.7 nM	100 nM	–	–	Ac-A[Dap(Me)]PQDLEL[Dap(Me)]TFLFGD[Dap(Me)]A (linker 2-9-16 via TBMB, Bicyclic peptide on a TBMB scaffold; all three cysteines of BCY00008655 replaced by Dap(Me); also called Ac-(28-06)(TBMB) Cys123Dap(Me)) [BCY00008654]
